Consider one substance from patent publication US20240150441A1.

In test [1] the target is spike (S) protein of the BA.4/5 SARS-CoV-2 pseudovirus (SARS-CoV-2, Omicron subvariant BA.4/5) (UniProt P0DTC2). The experiment in a line: cell-based or functional assay.
The target of test [2] is spike (S) protein of the authentic parental Omicron variant (B.1.1.529) of SARS-CoV-2 (SARS-CoV-2, B.1.1.529 (Omicron) variant) (UniProt P0DTC2). The experiment in a line: cell-based or functional assay.

In the case of “plant-made cilgavimab (pCilgavimab) (antibody)”, the neutralization of BA.4/5 pseudovirus, luciferase reporter assay, IC50 in test [1] was found to be 0.102 mg/L. In addition, the neutralization of authentic B.1.1.529 (Omicron) virus, foci-forming assay, IC50 in test [2] was found to be 2.23 mg/L.
